{"source": "paper doi:10.1101/2023.04.03.535215", "biological_target": "SARS-CoV-2 S protein receptor-binding domain (SARS-CoV-2) (UniProt P0DTC2)", "experiment": "ELISA", "data": [{"substance": "Native human surfactant protein A (from UniProt Q8IWL2 21-248) (natural protein)", "values": [{"measurement": "percent decrease of binding in 10 mM EDTA", "value": 59, "unit": "%"}]}]}
